Results reported in paper PMC5114850 (Science (New York, N.Y.), 2016).

Molecular target: recombinant human calmodulin (human, UniProt P0DP23 1-149)
Experiment: ITC

Kd: 2560 ± 722 nM
dH: -7.8 ± 0.8 kcal/mol
stoichiometry N: 1.01 ± 0.07 sites
Binder: Ac-EDLSSSYYRDYVKKILKKKK-NH2 [CaMBP0 peptide of zebrafish STRA6]
